What was measured:
[1] = biological target: T1, SARS-CoV-2 RBD-Flag-His protein (SARS-CoV-2, UniProt P0DTC2 319-541); assay: BLI
[2] = biological target: T1, SARS-CoV-2 RBD-Flag-His protein; assay: BLI; remark: listed apart in the source

B1: RBD-chAb-45 (antibody, V domains shown)
VH: EVQLQQSGPELVKPGASVKISCKTSGYTFTEYTIYWVKQSLGKSLEWIGGNNPNNDDTTYKQFFKGKATLTVDKSSSTAYMELRSLTSEDSAVYYCARDGYPYYYALDFWGQGTSVTVSS
VL: DIVMTQSQKFMSTSVGDRVSVTCKSSQNVGTNVAWYQQKPGQSPKALIYSASYRYSGVPDHFTGSGSGTDFTLTISNVQSADLAEYFCQQYNNYPWTFGGGTKLEIK
koff [1]: 0.000282 s⁻¹
Kd [2]: 0.282 nM

From publication PMC8530329 (2021)
